Experimental findings from article PMC7115876 (Nature, 2020) are described below.

The assay deals with human β-arrestin 1 (L68C, R169E) (human, UniProt P49407 2-418, L68C | R169E). Kind of assay: cryo-EM structure.
Sequence of human β-arrestin 1 (L68C, R169E) (P49407 2-418 L68C/R169E): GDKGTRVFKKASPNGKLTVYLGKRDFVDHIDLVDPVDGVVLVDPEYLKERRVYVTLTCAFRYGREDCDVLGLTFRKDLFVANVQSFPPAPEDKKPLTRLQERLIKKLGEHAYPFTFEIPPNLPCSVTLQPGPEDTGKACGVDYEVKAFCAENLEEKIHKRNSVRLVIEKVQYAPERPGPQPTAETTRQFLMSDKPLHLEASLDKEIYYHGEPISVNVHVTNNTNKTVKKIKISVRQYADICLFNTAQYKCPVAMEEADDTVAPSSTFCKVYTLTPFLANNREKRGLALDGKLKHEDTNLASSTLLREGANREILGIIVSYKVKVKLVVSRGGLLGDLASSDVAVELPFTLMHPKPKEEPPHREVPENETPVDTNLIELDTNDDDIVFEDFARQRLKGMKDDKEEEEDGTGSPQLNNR

B1: β1AR6P (turkey β1AR construct β83 ligated by sortase A to the phosphopeptide V2R6P) (receptor)
chain: not shown
modifications: six phosphoresidues in the V2R6P part: GGGDE[pS]A[pT][pT]A[pS][pS][pS]LAKDTSS
Consider B1, for which the binding result is recorded as “binds”.
